Data from patent US20090304651A1 (published 2009).
Like-named read-outs stand apart in the source and are kept apart here.

Columns and labels:
[1] = target: T1, recombinant human IGF-II (Insulin-like Growth Factor II) (human, UniProt P01344 25-91, biotinylated (Biotinyl-IGF-II, GroPep) where immobilised in SPR, site not stated; not biotinylated in ITC and as SPR analyte); test: SPR, steady-state KD relative to wild type
T1 construct: also called IGF2; IGF-2
Protocol: […]. Values are the mean±S.E.M. of three separate experiments.
Kinetic analysis by Surface Plasmon Resonance (SPR) was conducted on a BIAcore 3000 biosensor (BIAcore, Uppsala, Sweden) at 25° C. in HBS-EP (10 mM HEPES, pH 7.4, 150 mM NaCl, 3 mM EDTA, 0.005% surfactant P20) at a flow rate of 40 μl/min. […] Kinetic experiments consisted of a two minute injection of analyte followed by a 100 s dissociation phase in running buffer, after which the binding surface was regenerated with a 2 minute injection of 2 M MgCl₂. A blank flow cell was used for in-line reference subtraction of changes due to differences in refractive index of running buffer versus sample and a buffer-only injection was used to subtract instrument noise and drift. Injections were performed in duplicate for each concentration and in a randomised order. Kinetic parameters were determined by global fitting of sensorgrams to a two-state (conformational change) binding model using BIAevaluation software version 4.0.1. In all cases the minor component made an insignificant contribution to the overall affinity and as such only the kinetic parameters of the major binding component were used. For each interaction the dissociation affinity constant (KD) was also calculated by fitting of the response of each concentration at equilibrium to a steady-state affinity model using BIAevaluation. In order to investigate the influence of ionic strength, kinetic experiments were conducted in HBS-EP running buffers containing the desired NaCl concentration. In each case, analyte samples were made up in the appropriate running buffer prior to injection.
Following purification, the binding of each mutant construct to IGF2 was assessed by SPR and compared to the wild type domain 11.

[2] = target: T1, recombinant human IGF-II (Insulin-like …); test: SPR, steady-state KD relative to wild type; remark: listed apart in the source
How it was run: (§1)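 Duplicate 2 min injections of His-tag-purified, Pichia pastoris-secreted domain 11 proteins at 4096–8 nM (16384–32 nM for three constructs) passed over ~50 RU biotinylated IGF-II on a streptavidin Sensor Chip SA. A BIAcore 3000 ran at 25° C in HBS-EP at 40 μl/min, with blank-flow-cell and buffer-injection responses subtracted. Equilibrium responses were fitted in BIAevaluation to a steady-state affinity model to yield Kd, and relative affinity scales each value to the unaltered domain 11 protein.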

[3] = target: T1, recombinant human IGF-II (Insulin-like …); test: SPR, IGF-II immobilised, steady state
How it was run: as §1

[4] = target: T1, recombinant human IGF-II (Insulin-like …); test: SPR, IGF-II immobilised, kinetic fit
How it was run: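 Kd, together with association and dissociation rates, was determined by globally fitting blank-flow-cell- and buffer-subtracted sensorgrams in BIAevaluation 4.0.1. The sensorgrams were recorded on a BIAcore 3000 at 25° C in HBS-EP, flowing at 40 μl/min, by injecting His-tag-purified, Pichia pastoris-secreted domain 11 proteins in duplicate and in randomised order over ~50 RU biotinylated IGF-II on a streptavidin Sensor Chip SA. Each injection lasted 2 min, followed by 100 s dissociation and regeneration with 2 M MgCl₂. Analyte was run at 4096–8 nM, except for three constructs run at 16384–32 nM.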

T1 sequence (P01344 25-91 limits assumed): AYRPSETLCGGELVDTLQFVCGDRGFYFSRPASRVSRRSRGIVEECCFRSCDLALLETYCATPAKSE

Relative Affinity [1] | Relative Affinity [2] | Kd [3] [nM] | Kd [4] [nM] | koff [4] [s⁻¹] | kon [4] [M⁻¹ s⁻¹] | Binder
0.9 fold (wild type = 1.00) |  |  |  |  |  | IGF2R domain 11 G1619R (amino acids 1511-1650, C-terminal His6 tag, from Pichia pastoris) (receptor, also called polymorphism G1619R) NEHDDCQVTNPSTGHLFDLSSLSGRAGFTAAYSEKGLVYMSICGENENCPPGVGACFGQTRISVGKANKRLRYVDQVLQLVYKDGSPCPSKSGLSYKSVISFVCRPEARPTNRPMLISLDKQTCTLFFSWHTPLACEQATHHHHHH
 | 2.43 fold (wild type = 1.00) | 42.5 | 49.9 | 0.0649 | 1.3e+06 | IGF2R domain 11 with isoleucine at position 1544 (E1544I) (receptor) NEHDDCQVTNPSTGHLFDLSSLSGRAGFTAAYSIKGLVYMSICGENENCPPGVGACFGQTRISVGKANKRLRYVDQVLQLVYKDGSPCPSKSGLSYKSVISFVCRPEAGPTNRPMLISLDKQTCTLFFSWHTPLACEQATHHHHHH
 | 2.75 fold (wild type = 1.00) | 37.6 | 44.6 | 0.0566 | 1.27e+06 | IGF2R domain 11 with methionine at position 1544 (E1544M) (receptor) NEHDDCQVTNPSTGHLFDLSSLSGRAGFTAAYSMKGLVYMSICGENENCPPGVGACFGQTRISVGKANKRLRYVDQVLQLVYKDGSPCPSKSGLSYKSVISFVCRPEAGPTNRPMLISLDKQTCTLFFSWHTPLACEQATHHHHHH
 | 0.48 fold (wild type = 1.00) | 213 | 230 | 0.14 | 608000 | IGF2R domain 11 with aspartate at position 1544 (E1544D) (receptor) NEHDDCQVTNPSTGHLFDLSSLSGRAGFTAAYSDKGLVYMSICGENENCPPGVGACFGQTRISVGKANKRLRYVDQVLQLVYKDGSPCPSKSGLSYKSVISFVCRPEAGPTNRPMLISLDKQTCTLFFSWHTPLACEQATHHHHHH
 | 2.02 fold (wild type = 1.00) | 51.1 | 62.4 | 0.0655 | 1.05e+06 | IGF2R domain 11 with leucine at position 1544 (E1544L) (receptor) NEHDDCQVTNPSTGHLFDLSSLSGRAGFTAAYSLKGLVYMSICGENENCPPGVGACFGQTRISVGKANKRLRYVDQVLQLVYKDGSPCPSKSGLSYKSVISFVCRPEAGPTNRPMLISLDKQTCTLFFSWHTPLACEQATHHHHHH
 | 0.49 fold (wild type = 1.00) | 211 | 234 | 0.172 | 734000 | IGF2R domain 11 with proline at position 1544 (E1544P) (receptor) NEHDDCQVTNPSTGHLFDLSSLSGRAGFTAAYSPKGLVYMSICGENENCPPGVGACFGQTRISVGKANKRLRYVDQVLQLVYKDGSPCPSKSGLSYKSVISFVCRPEAGPTNRPMLISLDKQTCTLFFSWHTPLACEQATHHHHHH
 | 0.57 fold (wild type = 1.00) | 180 | 199 | 0.219 | 1.1e+06 | IGF2R domain 11 with glycine at position 1544 (E1544G) (receptor) NEHDDCQVTNPSTGHLFDLSSLSGRAGFTAAYSGKGLVYMSICGENENCPPGVGACFGQTRISVGKANKRLRYVDQVLQLVYKDGSPCPSKSGLSYKSVISFVCRPEAGPTNRPMLISLDKQTCTLFFSWHTPLACEQATHHHHHH
 | 1.8 fold (wild type = 1.00) | 57.4 | 65 | 0.0614 | 944000 | IGF2R domain 11 with tyrosine at position 1544 (E1544Y) (receptor) NEHDDCQVTNPSTGHLFDLSSLSGRAGFTAAYSYKGLVYMSICGENENCPPGVGACFGQTRISVGKANKRLRYVDQVLQLVYKDGSPCPSKSGLSYKSVISFVCRPEAGPTNRPMLISLDKQTCTLFFSWHTPLACEQATHHHHHH
 | 3.87 fold (wild type = 1.00) | 26.7 | 32.8 | 0.0578 | 1.76e+06 | IGF2R domain 11 with glutamine at position 1544 (E1544Q) (receptor) NEHDDCQVTNPSTGHLFDLSSLSGRAGFTAAYSQKGLVYMSICGENENCPPGVGACFGQTRISVGKANKRLRYVDQVLQLVYKDGSPCPSKSGLSYKSVISFVCRPEAGPTNRPMLISLDKQTCTLFFSWHTPLACEQATHHHHHH
 | 3.07 fold (wild type = 1.00) | 33.7 | 38.3 | 0.0689 | 1.8e+06 | IGF2R domain 11 with histidine at position 1544 (E1544H) (receptor) NEHDDCQVTNPSTGHLFDLSSLSGRAGFTAAYSHKGLVYMSICGENENCPPGVGACFGQTRISVGKANKRLRYVDQVLQLVYKDGSPCPSKSGLSYKSVISFVCRPEAGPTNRPMLISLDKQTCTLFFSWHTPLACEQATHHHHHH
 | 7.33 fold (wild type = 1.00) | 14.1 | 17.8 | 0.0407 | 2.29e+06 | IGF2R domain 11 with arginine at position 1544 (E1544R) (receptor) NEHDDCQVTNPSTGHLFDLSSLSGRAGFTAAYSRKGLVYMSICGENENCPPGVGACFGQTRISVGKANKRLRYVDQVLQLVYKDGSPCPSKSGLSYKSVISFVCRPEAGPTNRPMLISLDKQTCTLFFSWHTPLACEQATHHHHHH
 | 0.88 fold (wild type = 1.00) | 118 | 141 | 0.122 | 867000 | IGF2R domain 11 with asparagine at position 1544 (E1544N) (receptor) NEHDDCQVTNPSTGHLFDLSSLSGRAGFTAAYSNKGLVYMSICGENENCPPGVGACFGQTRISVGKANKRLRYVDQVLQLVYKDGSPCPSKSGLSYKSVISFVCRPEAGPTNRPMLISLDKQTCTLFFSWHTPLACEQATHHHHHH
 | 1.72 fold (wild type = 1.00) | 60 | 69.3 | 0.0692 | 998000 | IGF2R domain 11 with threonine at position 1544 (E1544T) (receptor) NEHDDCQVTNPSTGHLFDLSSLSGRAGFTAAYSTKGLVYMSICGENENCPPGVGACFGQTRISVGKANKRLRYVDQVLQLVYKDGSPCPSKSGLSYKSVISFVCRPEAGPTNRPMLISLDKQTCTLFFSWHTPLACEQATHHHHHH
 | 1.83 fold (wild type = 1.00) | 56.4 | 69.4 | 0.0791 | 1.14e+06 | IGF2R domain 11 with phenylalanine at position 1544 (E1544F) (receptor) NEHDDCQVTNPSTGHLFDLSSLSGRAGFTAAYSFKGLVYMSICGENENCPPGVGACFGQTRISVGKANKRLRYVDQVLQLVYKDGSPCPSKSGLSYKSVISFVCRPEAGPTNRPMLISLDKQTCTLFFSWHTPLACEQATHHHHHH
 | 5.24 fold (wild type = 1.00) | 19.7 | 23.3 | 0.0494 | 2.12e+06 | IGF2R domain 11 with serine at position 1544 (E1544S) (receptor) NEHDDCQVTNPSTGHLFDLSSLSGRAGFTAAYSSKGLVYMSICGENENCPPGVGACFGQTRISVGKANKRLRYVDQVLQLVYKDGSPCPSKSGLSYKSVISFVCRPEAGPTNRPMLISLDKQTCTLFFSWHTPLACEQATHHHHHH
 | 1.94 fold (wild type = 1.00) | 53.2 | 62.8 | 0.0588 | 936000 | IGF2R domain 11 with tryptophan at position 1544 (E1544W) (receptor) NEHDDCQVTNPSTGHLFDLSSLSGRAGFTAAYSWKGLVYMSICGENENCPPGVGACFGQTRISVGKANKRLRYVDQVLQLVYKDGSPCPSKSGLSYKSVISFVCRPEAGPTNRPMLISLDKQTCTLFFSWHTPLACEQATHHHHHH
